B1: human DOCK2 (dedicator of cytokinesis 2) (natural protein)
chain: not shown
notes: DOCK2, human; Tag removed with TEV protease; samples for cryo-EM were cross-linked with glutaraldehyde; also called DOCK2^WT; source: High Five insect cells (baculovirus), co-expressed with ELMO1, purified (Strep-Tactin, Resource Q, Superose 6); not shown: double StrepII, C-terminal, cleaved
B2: N-terminal RBD domain of murine ELMO2 (amino acids 1–80) (domain or fragment, UniProt Q8BHL5 1-80, looked up)
chain: MPPPSDIVKVAIEWPGANAQLLEIDQKRPLASIIKEVCDGWSLPNPEYYTLRYADGPQLYVTEQTRNDIKNGTILQLAVS
notes: also called ELMO2^RBD; wild-type ELMO2^RBD; source: E. coli BL21 (DE3) CodonPlus, purified (GSH resin, thrombin cleavage on the resin, Superdex 75); not shown: GST, N-terminal, cleaved

What was measured:
[1] = biological target: the molecule itself; assay: SEC; co-expressed and co-purified DOCK2–ELMO1 complex, wild type and dimer mutant; gel filtration buffer 50 mM Tris HCl (pH 8.0), 200 mM NaCl, 2 mM DTT; Superose 6 / Superdex 200 5/150GL
RHOG D38A mutant = biological target: T1, RHOG D38A mutant (human, UniProt P84095 1-179, D38A); assay: ITC; ELMO2^RBD injected into the cell containing GMPPNP-loaded (activated) RHOG; 20 mM Tris-HCl (pH 7.5), 100 mM NaCl, 1 mM DTT; 25 °C; conditions: both partners purified
T1 construct: RHOG, human, GeneID 391, amino acids 1–179 with D38A; also called RHOG Asp38 to Ala mutant; source: E. coli BL21 (DE3) CodonPlus, purified (nickel-nitrilotriacetic acid, thrombin cleavage, Superdex 75)
T1 sequence (P84095 1-179 D38A): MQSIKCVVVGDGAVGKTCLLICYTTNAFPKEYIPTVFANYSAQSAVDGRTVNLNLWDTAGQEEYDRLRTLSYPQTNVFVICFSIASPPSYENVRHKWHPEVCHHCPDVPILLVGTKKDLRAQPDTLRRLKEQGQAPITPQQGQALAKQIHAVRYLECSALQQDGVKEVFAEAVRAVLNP

[2] = biological target: T2, human RHOG (amino acids 1–179) (human, UniProt P84095 1-179); assay: as above; conditions: both partners purified
T2 construct: RHOG, human, GeneID 391, amino acids 1–179; Loaded with GMPPNP (or GDP) as told for each assay; also called wild-type RHOG; source: E. coli BL21 (DE3) CodonPlus, purified (nickel-nitrilotriacetic acid, thrombin cleavage, Superdex 75)
T2 sequence (P84095 1-179): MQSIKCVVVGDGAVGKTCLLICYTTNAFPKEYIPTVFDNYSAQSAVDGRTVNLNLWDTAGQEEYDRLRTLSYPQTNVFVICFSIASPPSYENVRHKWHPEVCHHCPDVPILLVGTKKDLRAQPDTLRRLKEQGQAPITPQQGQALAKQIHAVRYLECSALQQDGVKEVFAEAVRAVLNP

Row | Binder | stoichiometry N [1] | Kd (RHOG D38A mutant) [µM] | Kd [2] [µM]
1 | B1 | 2 |  | 
2 | B2 |  | 9 | 7.8
